Measured values as given in paper PMC10090020.

Target: mCherry-CARACB(G15V) (barley (Hordeum vulgare))
Assay: FRET or BRET; FLIM-FRET in barley epidermal cells transiently co-expressing meGFP-RIC157 (donor) and mCherry-RACB forms (acceptor) after particle bombardment; meGFP lifetime measured at the equatorial plane; at least 10 cells per interaction in two replicates

meGFP fluorescence lifetime: 2.2 ns
Substance: meGFP-RIC157 (natural protein)
